Measured values reported in the supplement of paper PMC10567573.

B1: CDC25B (parent)
chain: ELKTFRLKTRSWAGERSRRELCSR

Variants of: B1
Test: protein stability index of a GFP-peptide fusion (GPS, HEK-293T) (PSI 1-6); higher = more stable
Conditions: c terminus: a fixed tail appended
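Further: lentivirally expressed fusions sorted by FACS into six bins by GFP to DsRed ratio, PSI derived from sequencing read proportions per bin multiplied by bin number.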

Protein stability index of substitutions, site by site:
S17: C 2.69; M 2.52; I 2.32; H 3.21; P 3.35; L 2.87; R 2.63; T 3.33; Q 3.35; F 2.24; D 3.46; E 4.03; A 3.4; K 2.77; G 2.7; N 2.93; V 2.36; W 2.16; Y 3.27
E1: T 2.69; D 3.03; P 3.72; W 2.6; V 3.31; Q 3.57; R 3.03; F 1.95; I 1.9; N 3.01; H 3.29; C 3.07; A 3.96; Y 2.19; G 3.09; S 3.2; M 2.2; K 2.97; L 2.8
L2: H 3.74; A 4.42; E 4.97; T 3.72; K 3.53; W 2.83; M 3.87; Y 3.78; F 2.54; G 3.75; V 3.44; N 4.04; Q 4.5; I 3.17; P 3.89; S 4.12; R 3.67; D 3.81; C 4.24
L7: G 4.12; A 3.75; K 4.68; V 3.33; R 4.57; E 4.07; W 2.99; C 3.98; Y 3.29; D 3.86; P 3.99; N 3.57; Q 3.75; S 3.91; H 3.6; M 3.81; T 4.08; I 3.25
R16: A 3.64; K 2.81; Y 3.61; N 3.34; L 2.91; G 3.74; M 2.97; Q 3.62; T 3.87; F 2.6; P 3.67; I 2.53; E 3.64; C 2.97; W 2.55; V 1.93; S 3.9; D 3.83; H 3.46
A13: P 3.84; L 2.62; F 1.88; S 2.85; Q 3.01; D 3.98; K 3.31; I 2.22; T 3.1; H 3.81; E 3.23; C 2.94; G 3.41; M 2.92; R 3.49; W 2.2; N 3.81; Y 2.22; V 2.44
W12: T 3.38; C 2.87; L 3.41; P 3.55; D 4.12; V 3.45; K 3.94; R 4.08; A 3.16; F 3.34; M 2.43; Q 3.49; S 3.54; G 3.54; I 3.3; E 4.2; N 3.45; H 3.64; Y 3.66
F5: A 4.09; P 4.43; H 3.92; N 3.63; W 2.87; G 3.69; E 2.5; I 3.59; Q 3.67; T 3.82; V 3.96; Y 3.94; D 4.08; L 3.65; R 3.78; K 4.24; C 3.09; S 3.94; M 3.6
R6: I 2.06; T 3.39; A 2.78; L 2.04; E 1.84; S 3.33; F 1.75; N 3.3; Y 2.42; Q 3.75; G 3.34; C 2.14; W 1.89; P 3.75; K 2.85; V 2.32; M 2.14; D 3.17; H 3.25
K8: V 2.68; T 3.65; F 2.28; S 3.55; C 2.73; E 3.2; Q 3.34; D 3.41; A 2.88; I 1.92; W 2.1; P 2.77; L 3.2; H 3.07; Y 2.71; R 5.09; G 2.4; M 2.8; N 2.99
S11: P 2.59; K 2.64; W 2.57; E 3.11; F 2.58; A 2.68; T 3.1; V 2.11; N 3.2; R 2.4; M 2.42; H 1.95; G 2.94; I 2.71; C 2.63; L 2.61; Q 2.58; D 2.95
K3: A 2.92; Q 3.25; H 3.63; V 2.67; C 2.78; G 3.71; I 1.89; N 3.38; R 3.6; L 2.14; T 3.2; E 3.29; S 3.62; W 2.44; P 3.42; Y 2.91; M 3.02; F 1.61; D 3.33
E15: T 2.98; D 3.36; H 3.02; V 2.51; A 3.04; K 3.3; C 2.44; S 2.96; Y 2.46; M 2.67; N 2.66; F 2.58; G 2.68; L 2.78; P 3.2; Q 3.06; I 2.75; W 2.4; R 3.06
R18: E 3.52; C 2.23; N 3.18; I 3.04; G 2.95; L 3.23; K 3.36; M 3.36; D 3.4; A 3.85; F 2.62; Q 4.01; P 3.64; H 3.33
T9: A 3.66; S 4.09; V 2.6; L 2.09; H 3.29; M 2.3; Y 3.16; C 3.58; P 3.14; N 3.66; E 3.69; Q 3.13; D 3.35; R 4.65; I 1.99; G 4; K 3.84; W 1.54; F 2.18
G14: A 2.42; L 2.61; H 2.65; M 2.66; Y 2.05; I 2.67; S 2.39; R 2.73; V 2.19; T 3.53; Q 2.58; K 2.7; P 2.25; F 3.15; D 3.62; E 3.16; C 2.5; W 3.23; N 2.48
R10: D 3.62; Q 3.1; V 2.45; H 3.04; K 3.66; A 3.15; N 3.13; F 2.54; S 3.5; C 2.94; G 2.44; Y 3.19; P 3.13; I 2.8; T 2.37; E 2.66; L 3.38; W 2.41; M 2.92
T4: G 2.9; R 2.52; V 3.27; A 3.47; C 2.56; P 3.41; E 3.16; S 3.6; D 4.42; Q 3.18; L 2.85; H 3.27; I 2.26; Y 3.27; N 2.09; K 2.61; M 2.96; F 2.79
